Laboratory results published in patent US20150266967A1.

Target: recombinant Fcγ-receptor 3a protein, high affinity V158 allotype (UniProt P08637)
Experiment: surface plasmon resonance, KD from ka and kd

recombinant Fcγ-receptor 3a protein, high affinity V158 allotype, sequence (P08637 17-208 F176V): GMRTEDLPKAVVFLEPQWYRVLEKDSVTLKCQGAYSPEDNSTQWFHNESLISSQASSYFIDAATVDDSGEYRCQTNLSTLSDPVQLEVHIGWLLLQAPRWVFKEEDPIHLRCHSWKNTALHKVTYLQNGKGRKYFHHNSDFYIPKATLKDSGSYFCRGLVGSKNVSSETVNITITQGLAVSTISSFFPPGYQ

Kd: 0.379 µM
Substance: non Fc-engineered IgG1 reference antibody
